B1: SLX4BTB wild type, yeast two-hybrid fusion [human] / itself (parent complex)
chain: QDKHPDRGGRTLLSLGLLVADFGAMVNNPHLSDVQFQTDSGEVLYAHKFVLYARCPLLIQYVNNEGFSAVEDGVLTQRVLLGDVSTEAARTFLHYLYTADTGLPPGLSSELSSLAHRFGVSELVHLCEQVPIATDS

Variants of: B1
Experiment: yeast two-hybrid β-galactosidase assay; ONPG as substrate; SLX4BTB-F708R-AD + SLX4BTB-F708R-BD; parent: 710; read off a plot

Row | response [OD420 reading] | Variant
1 | ~3 | chain 1 F49R

Variants of: B1
Experiment: yeast two-hybrid β-galactosidase assay; ONPG as substrate; SLX4BTB-F681R-F708R-AD + SLX4BTB-F681R-F708R-BD; parent: 710; read off a plot

Row | response [OD420 reading] | Variant
2 | ~2.5 | chain 1 F22R, chain 1 F49R

From paper PMC4889959 (Nucleic Acids Research, 2016)
